According to patent US20200129630A1, “METHODS FOR TREATING CANCER” (BicycleRD Limited, priority 2018, published 2020):
“And” between values parts separate entries of the source, which are not always exact repeats. Identical values can stand only once. Like-named read-outs stand apart in the source and are kept apart here. Numbered stars: 1 amine (or outer) side, 2 acyl side, 3 side chain; on linkers, the order of the positions; unused ones are H or OH. Bridge positions count the residues as written; N and C are the ends. Square brackets hold non-standard residues; d marks the D form. Peptide text beside a SMILES is read from it. * marks the point of attachment. X1 = COc1cc2cc(c1Cl)N(C)C(=O)C[C@H](OC(=O)[C@H](C)N(C)C(=O)CCSSC(C)CCC(=O)*)[C@]1(C)O[C@H]1[C@H](C)[C@@H]1C[C@@](O)(NC(=O)O1)[C@H](OC)/C=C/C=C(\C)C2; 1Nal = N[C@@H](Cc1cccc2ccccc12)C(=O)O; TBMB = c1c(C[*:1])cc(C[*:3])cc1C[*:2]; Tle = CC(C)(C)[C@H](N)C(=O)O; βAla = NCCC(=O)O; Sar = CNCC(=O)O

Columns and labels:
[1] = GLP-compliant 28-day repeat dose toxicity study, rat; assay type: in vivo
Protocol: In a GLP-compliant study in Cynomolgus monkeys, the highest non-severely toxic dose (HNSTD) of BT1718 was established to be 18 mg/m^2 administered twice weekly, equivalent to a human dose of 0.48 mg/kg. In a GLP-compliant study in the rat, the MTD was not reached with the highest administered dose 6 mg/m^2 twice weekly. At this dose level, there was kidney toxicity (with no effect on clinical condition) and also testicular toxicity. After 28 days off-dose, there was evidence of partial recovery of kidney-related findings, but no recovery of testicular effects at this dose level. […] Therefore, the MTD for rat for twice weekly dosing was considered to be between 1 and 1.5 mg/kg.

[2] = Plasma protein binding, human; assay type: in vitro ADME
Protocol: (§1) Plasma protein binding of BT1718 was also assessed. The mean plasma protein binding of the BT1718 peptide ranged from 87% to 98%, with the free fraction of BT1718 being 13% in human, 2.6% in rats, 7.5% in mice, 3.8% in monkey and 1.5% in dog plasma, the results had no correlation to the plasma and whole blood stability data. […] Plasma protein binding of unconjugated DM1, has previously been reported, with the unbound fraction being 7% in human and monkey and 3% in rat.

[3] = Stability in plasma in vitro, monkey; assay type: in vitro ADME; conditions: 37° C.
Protocol: The stability of BT1718 was assessed in plasma and whole blood from humans, monkey, dog, mouse and rat. […] The mechanism for the difference in stability of the BT1718 peptide in whole blood between the different species is unknown.

[4] = Distribution into blood cells; assay type: in vitro ADME; conditions: comparable across human and all preclinical species tested
[5] = tested on: HCC-1806; test: In vitro cytotoxicity (CellTiter-Glo) HCC-1806; assay type: cell-based; conditions: HCC-1806, Breast
Excerpt: (§2) Table 1 and Table 2 Notes: in general regression and stable disease correlated with the in vitro cytotoxicity and MT1-MMP expression. Female BALB/c mice n=3/group animals dosed twice per week except EBC-1 three per week. Tumor growth inhibition (TGI) (%)=[1−(Ti−T0)/(Vi−V0)]×100; Ti is the average tumor volume of a treatment group on a given day, TO is the average tumor volume of the treatment group on the day of treatment start, Vi is the average tumor volume of vehicle control group on the same day with Ti, and V0 is the average tumor volume of vehicle group on the day of treatment start. A one-way ANOVA was performed to compare tumor volume among groups, and when a significant F-statistics (a ratio of treatment variance to the error variance) was obtained, comparisons between groups were carried out with Games-Howell test. All data were analyzed using GraphPad Prism.* p<0.05, ** p<0.01, *** p<0.001. In vitro cytotoxicity was measured by CellTiter-Glo®, MT1-MMP membrane H score from immunohistochemistry staining, NM not measured. Tumor size on Day 1 of dosing.

[6] = Monkey GLP study toxicokinetics; assay type: in vivo; conditions: plasma, Day 1 male; for clearance / half-life / Cmax / Vd: Cynomolgus; for Cmax: read-out: C0/Cmax; for Vd: read-out: Vdss
Excerpt: In a repeat dose experiment with BT1718 no significant gender-related differences in the TK parameters for the rat or monkey were noted. Exposure in both the rat and monkey increased approximately linearly with dose and was maintained for 28 days on repeat dosing. […] Plasma clearance and volume of distribution were similar across BT1718 dose and consistent with the PK studies.

[7] = tested on: EBC-1; test: In vitro cytotoxicity (CellTiter-Glo) EBC-1; assay type: cell-based; conditions: EBC-1, Lung
Excerpt: as §2

[8] = tested on: SNU-16; test: In vitro cytotoxicity (CellTiter-Glo) SNU-16; assay type: cell-based; conditions: SNU-16, Gastric
Excerpt: as §2

[9] = Plasma protein binding, mouse; assay type: in vitro ADME, mice; conditions: read-out: free fraction
Protocol: as §1

[10] = Clinical pharmacokinetics of BT1718, 1 h intravenous infusion; assay type: in vivo, patients; conditions: for clearance / half-life / Vd: human, plasma
Excerpt: Intact BT1718 and total DM1 (DM1 in BT1718, any peptidyl-DM1 metabolites of BT1718, and other DM1-containing mixed disulfides and free DM1) will be measured in plasma according to agreed standard operating procedures (SOPs) and validated methods in Phase I, dose escalation phase (Stage 1 and 2) and potentially in Phase IIa, expansion phase (Parts A and B), dependent on emerging data.
The plasma concentration/time data will be analyzed using non-compartmental methods. The PK parameters to be determined for intact BT1718 include Cmax, Tmax, AUC, t1/2, total body clearance (CLT) and Vdss. The PK parameters to be determined for total DM1 include Cmax, Tmax, AUC and t1/2.
The preliminary clinical pharmacokinetic data for BT1718 following a 1 hour intravenous infusion to patients are shown in Table 13 below.

[11] = rat GLP, 1 mg/kg (6 mg/m^2) twice weekly
[12] = rat GLP, males 1 mg/kg (6 mg/m^2) twice weekly
[13] = 2.4 mg/m2, Monkeys GLP, 2.4 mg/m^2 IV
[14] = 6 mg/m2, Monkeys GLP, 6 mg/m^2 IV
[15] = 12 mg/m2, Monkeys GLP, 12 mg/m^2 IV
[16] = 18 mg/m2, Monkeys GLP, 18 mg/m^2 IV
[17] = 9.6 mg/m^2, 1 h IV infusion, individual patients

SMILES: COc1cc2cc(c1Cl)N(C)C(=O)C[C@H](OC(=O)[C@H](C)N(C)C(=O)CCSSC(C)CCC(=O)NCCC(=O)N(C)CC(=O)N(C)CC(=O)N(C)CC(=O)N(C)CC(=O)N(C)CC(=O)N(C)CC(=O)N(C)CC(=O)N(C)CC(=O)N(C)CC(=O)N(C)CC(=O)N[C@@H](C)C(=O)N[C@H]1CSCc3cc4cc(c3)CSC[C@H](NC(=O)[C@@H](C)NC(=O)[C@H](Cc3cccc5ccccc35)NC(=O)[C@H](CCC(=O)O)NC(=O)[C@H](CC(N)=O)NC(=O)[C@@H](C)NC1=O)C(=O)N[C@@H](CCC(=O)O)C(=O)N[C@@H](CC(=O)O)C(=O)N[C@@H](Cc1ccccc1)C(=O)N[C@@H](Cc1ccc(O)cc1)C(=O)N[C@@H](CC(=O)O)C(=O)N[C@@H](C(C)(C)C)C(=O)N[C@H](C(N)=O)CSC4)[C@]1(C)O[C@H]1[C@H](C)[C@@H]1C[C@@](O)(NC(=O)O1)[C@H](OC)/C=C/C=C(\C)C2 (stereo partly drawn) [BT1718] ({X1-βAla}-[Sar][Sar][Sar][Sar][Sar][Sar][Sar][Sar][Sar][Sar]AC[dA]NE[1Nal][dA]CEDFYD[Tle]C-NH2; linker 12-18-25 via TBMB (inferred))
- GI-related findings ([1]; GLP rat): No GI-related findings
- bladder changes ([1]; GLP rat): No bladder changes
- MTD ([1]; GLP rat, highest administered dose 6 mg/m^2 twice weekly): not reached
- MTD at 28 day ([1]; in vivo, intravenous, considered from GLP and non-GLP rat studies, read-out: MTD for rat for twice weekly dosing): 1 to 1.5 mg/kg
- anti-drug antibodies (ADAs) in serum ([1]; rat 28-day GLP study): negative
- hepatic findings ([1]; rat GLP 28 day, 1 mg/kg (6 mg/m^2) twice weekly): minimal to slight reversible hepatocellular atrophy
- raised ALP, AST and cholesterol, from control values ([1]; rat GLP 28 day, 1 mg/kg twice weekly): ≤ 1.5 ×
- erythrocyte parameters, maximum drop [1, 11]: 0.64 ×
- increase in platelets, maximum [1, 11]: 2.3 ×
- reduction in reticulocytes ([1]; rat GLP, 1 mg/kg (6 mg/m^2) twice weekly, females): 0.37 ×
- reduction in reticulocytes ([1]; rat GLP, 1 mg/kg (6 mg/m^2) twice weekly, males): 0.06 ×
- reproductive organ findings ([1]; rat GLP, all males 1 mg/kg (6 mg/m^2) twice weekly): testicular degeneration/atrophy of the seminiferous tubules and the absence of sperm
- incidence of minimal hypertrophy of the zona glomerulosa ([1]; rat GLP, females 1 mg/kg (6 mg/m^2) twice weekly): 5 of 10
- incidence of minimal hypertrophy of the zona glomerulosa ([1]; rat GLP, males 0.2 mg/kg (1.2 mg/m^2) twice weekly): 2 of 10
- incidence of minimal hypertrophy of the zona glomerulosa ([1]; rat GLP, males 0.5 mg/kg (3 mg/m^2) twice weekly): 3 of 10
- adrenal gland terminal weights [1, 12]: significantly lower terminal weights
- incidence of minimal hypertrophy of the zona glomerulosa [1, 12]: 4 of 10
- onset dose of renal tubular epithelial degeneration ([1]; rat GLP, twice weekly): 0.2 mg/kg
- axonal degeneration ([1]; rat study): not observed
- fraction unbound ([2]; human plasma, read-out: free fraction): 0.13
- fraction unbound ([2]; range across human, rat, mouse, monkey and dog plasma, read-out: mean plasma protein binding): 0.02 to 0.13
- half-life [3]: > 300 min
- distribution into blood cells [4]: limited distribution into blood cells
- IC50 [5]: 1.4 nM
- clearance [6, 13]: 13.4 ± 4.7 mL/min/kg
- half-life [6, 13]: 12.6 min
- Cmax [6, 13]: 200 ± 40 nM
- Vd [6, 13]: 0.24 ± 0.05 L/kg
- clearance [6, 14]: 8.8 ± 0.8 mL/min/kg
- half-life [6, 14]: 13.8 min
- Cmax [6, 14]: 670 ± 40 nM
- Vd [6, 14]: 0.17 ± 0.02 L/kg
- clearance [6, 15]: 8.2 ± 0.6 mL/min/kg
- half-life [6, 15]: 21.6 min
- Cmax [6, 15]: 1210 ± 90 nM
- Vd [6, 15]: 0.21 ± 0.01 L/kg
- clearance [6, 16]: 6.7 mL/min/kg
- half-life [6, 16]: 22.8 min
- Cmax [6, 16]: 2530 nM
- Vd [6, 16]: 0.16 L/kg
- AUC [6, 13]: 0.08 ± 0.02 µM·h
- AUC [6, 14]: 0.28 ± 0.03 µM·h
- AUC [6, 15]: 0.59 ± 0.14 µM·h
- AUC [6, 16]: 1.09 µM·h
- IC50 [7]: 27 nM
- IC50 [8]: 19.5 nM
- fraction unbound [9]: 0.075
- CLp [10, 17]: 4.4 mL/min/kg and 10.2 mL/min/kg
- Vss [10, 17]: 0.18 L/kg
- t½ [10, 17]: 17 min and 14 min
- clearance ([10]; intravenous, Data for all patients, read-out: CLp): 10 mL/min/kg
- half-life ([10]; intravenous, Data for all patients, read-out: t½): 18 min
- clearance ([10]; intravenous, Data for cycle 1 only, read-out: CLp): 12 mL/min/kg
- half-life ([10]; intravenous, Data for cycle 1 only, read-out: t½): 18 min
- clearance ([10]; intravenous, patients, read-out: Mean (±SD) plasma clearance (CLp) (converted)): 538 mL/min
- Vd ([10]; intravenous, patients, read-out: mean (±SD) volume of distribution (Vss)): 22.9 L
- half-life ([10]; intravenous, patients, read-out: terminal half-life (t½)): 12 to 60 min
- clearance ([10]; iv, 1.2 mg/m^2, 1.2 mg/m^2, 1 h IV infusion, individual patient, read-out: CLp): 12.5 mL/min/kg
- Vd ([10]; iv, 1.2 mg/m^2, 1.2 mg/m^2, 1 h IV infusion, individual patient, read-out: Vss): 0.23 L/kg
- half-life ([10]; iv, 1.2 mg/m^2, 1.2 mg/m^2, 1 h IV infusion, individual patient, read-out: t½): 6 min
- clearance ([10]; iv, 2.4 mg/m^2, 2.4 mg/m^2, 1 h IV infusion, individual patient, read-out: CLp): 18.4 mL/min/kg
- Vd ([10]; iv, 2.4 mg/m^2, 2.4 mg/m^2, 1 h IV infusion, individual patient, read-out: Vss): 0.3 L/kg
- half-life ([10]; iv, 2.4 mg/m^2, 2.4 mg/m^2, 1 h IV infusion, individual patient, read-out: t½): 6 min
- clearance ([10]; iv, 4.8 mg/m^2, 4.8 mg/m^2, 1 h IV infusion, individual patient, read-out: CLp): 13.3 mL/min/kg
- Vd ([10]; iv, 4.8 mg/m^2, 4.8 mg/m^2, 1 h IV infusion, individual patient, read-out: Vss): 0.19 L/kg
- half-life ([10]; iv, 4.8 mg/m^2, 4.8 mg/m^2, 1 h IV infusion, individual patient, read-out: t½): 10 min
- Vd ([10]; iv, 9.6 mg/m^2, 9.6 mg/m^2, 1 h IV infusion, individual patients, read-out: Vss): 0.15 L/kg
- half-life ([10]; iv, 9.6 mg/m^2, 9.6 mg/m^2, 1 h IV infusion, individual patients, read-out: t½): 16 min
- AUC vs dose ([10]; over the range 0.6-25 mg/m2): approximately dose proportional
